Source: patent publication WO2019016784A1 (dated 2019)

B1: aNCL-CDR1-L VHH (VHH)
VHH: QVQLQESGGGLVQPGGSLRLSCAASSGGGSPQRRSARLSASGGGSWFRQAPGKEREFVARIYWSSGNTYYADSVKGRFAISRDIAKNTVDLTMNNLEPEDTAVYYCAARDGIPTSRSVESYNYWGQGTQVTVSS
notes: The entry holds leader peptide, His tag and HA tag; also called aNCL-CDRl-L; CDR1-grafted VHH with SGGGS linkers
B2: aNCL-CDR3 VHH (VHH)
VHH: QVQLQESGGGLVQPGGSLRLSCAASGRTFSDHSGYTYTIGWFRQAPGKEREFVARIYWSSGNTYYADSVKGRFAISRDIAKNTVDLTMNNLEPEDTAVYYCAAPQRRSARLSAWGQGTQVTVSS
notes: The entry holds leader peptide, His tag and HA tag; also called CDR3-grafted VHH; anti-nucleolin VHH
B3: aNCL-CDR3-L VHH (VHH)
VHH: QVQLQESGGGLVQPGGSLRLSCAASGRTFSDHSGYTYTIGWFRQAPGKEREFVARIYWSSGNTYYADSVKGRFAISRDIAKNTVDLTMNNLEPEDTAVYYCAASGGGSPQRRSARLSASGGGSWGQGTQVTVSS
notes: The entry holds leader peptide, His tag and HA tag; also called CDR3-grafted VHH with SGGGS linkers
B4: aNCL-CDR1 VHH (VHH)
VHH: QVQLQESGGGLVQPGGSLRLSCAASPQRRSARLSAWFRQAPGKEREFVARIYWSSGNTYYADSVKGRFAISRDIAKNTVDLTMNNLEPEDTAVYYCAARDGIPTSRSVESYNYWGQGTQVTVSS
notes: The entry is expected to hold leader peptide, His tag and HA tag like the others; also called aNCL-CDRl; a-NCL-CDRl VHH

Target: T1, human recombinant TNF-a (human, UniProt P01375 77-233)
T1 construct: Coated at 200 ng per well in the ELISA; also called human TNF-a
Test: ELISA, 200 ng human TNF-a coated, 100 pmol VHH, anti-HA-peroxidase detection

T1 sequence (P01375 77-233 limits assumed): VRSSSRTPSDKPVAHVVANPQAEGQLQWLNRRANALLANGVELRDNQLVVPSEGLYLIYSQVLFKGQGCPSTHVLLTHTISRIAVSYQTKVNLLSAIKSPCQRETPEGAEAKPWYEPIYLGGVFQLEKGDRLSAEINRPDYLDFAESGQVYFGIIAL

| Binder | percent lower binding to TNF-a than the parental VHH [%] |
| --- | --- |
| B1 | ~40 |
| B2 | ~40 |
| B3 | ~40 |
| B4 | ~40 |

Target: T2, human recombinant nucleolin (human, UniProt P19338 1-710, limits assumed)
T2 construct: also called human nucleolin
Test: ELISA, 100 ng human nucleolin coated, 100 pmol VHH, anti-HA-peroxidase detection

T2 sequence (P19338 whole entry, form in doubt): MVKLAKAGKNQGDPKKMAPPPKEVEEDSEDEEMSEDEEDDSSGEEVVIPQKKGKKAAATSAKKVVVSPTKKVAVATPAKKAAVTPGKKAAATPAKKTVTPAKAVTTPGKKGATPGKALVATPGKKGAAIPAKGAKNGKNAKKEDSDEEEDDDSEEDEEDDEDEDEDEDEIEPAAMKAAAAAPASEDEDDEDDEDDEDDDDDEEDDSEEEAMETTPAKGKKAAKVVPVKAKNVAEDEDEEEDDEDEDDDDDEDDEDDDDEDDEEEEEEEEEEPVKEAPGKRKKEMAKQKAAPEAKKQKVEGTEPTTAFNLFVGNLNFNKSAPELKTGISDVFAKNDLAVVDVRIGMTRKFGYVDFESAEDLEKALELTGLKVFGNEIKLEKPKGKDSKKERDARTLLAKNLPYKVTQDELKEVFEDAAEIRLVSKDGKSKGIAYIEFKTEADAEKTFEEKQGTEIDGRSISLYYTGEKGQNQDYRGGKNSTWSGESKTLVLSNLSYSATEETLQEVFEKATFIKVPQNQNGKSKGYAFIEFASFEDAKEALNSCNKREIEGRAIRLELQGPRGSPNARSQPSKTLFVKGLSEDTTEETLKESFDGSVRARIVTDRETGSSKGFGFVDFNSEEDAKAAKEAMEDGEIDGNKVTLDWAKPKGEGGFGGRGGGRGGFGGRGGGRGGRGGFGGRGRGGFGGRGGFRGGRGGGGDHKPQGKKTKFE

| Binder | fold increased nucleolin binding relative to the parental VHH [fold] |
| --- | --- |
| B1 | 2 |
| B2 | 3 |
| B3 | 3 |
| B4 | 2 |
